Here are results for 1 molecule from US20180094062A1 (Hoffmann-La Roche, published 2018).

For orientation: Kd means the concentration at which binding is half-saturated. Broadly, the koff is a measure of how fast the partners let go of each other. For orientation: kon means the rate constant with which the complex forms.

This assay has as its target T1, human recombinant HER3 Extracellular Domain (HER3 ECD) (human, UniProt P21860 20-643).
T1 construct: 68 kDa; also called human-Her3-ECD
The assay can be described thus: SPR Biacore T100, antibody captured, 25 C, Langmuir fit. The method, then:
A CM5 series sensor was mounted into the system and was normalized in HBS-ET buffer (10 mM HEPES pH 7.4, 150 mM NaCl, 3 mM EDTA, 0.005% w/v Tween 20) according to the manufacturer's instructions. The sample buffer was the system buffer supplemented with 1 mg/ml CMD (Carboxymethyldextran, Sigma #86524). The system operated at 25° C. 6500 RU RAM-Fcγ (relative units of Fcγ-fragment RamlgG, GE Healthcare) were immobilized according to the manufacturer's instructions using EDC/NHS chemistry on all four flow cells. The sensor was deactivated using 1M ethanolamine.
Analytes in solution were injected at different concentration steps of 0 nM, 1.1 nM, 3.7 nM, 11.1 nM, 33.1 nM and 90 nM for 3.5 min. The dissociation was monitored for 15 min. Where possible, kinetic signatures were evaluated according to a Langmuir fit.

Values joined by “and” are separate entries in the source; they are usually repeats but may differ in a detail not shown here. Identical values can stand only once.

B1: anti-HER3 antibody M-08-11 (antibody, V domains shown)
VH: QAYLQQSGAELMRPGASVRMSCQASGYTFTSYTIHWLKQTPRQGLEWIGAIYPRNGDFSYNQKFKDKASLTVDTSSSTAYMHLSSLTSEDSAVYFCARTINYGDWFAYWGQGTLVTVSA
VL: DIQMIQSPASLFVSEGETVIITCRASENIYSNLAWYHQKKGKSPQVLVYAAIKLADGVPLRFSGSGSGTQFSLKINSLQSEDFGSYYCQHFWGPPYTFGSGTNLEIK
notes: mouse monoclonal antibody from hybridoma, tested as hybridoma supernatant or as antibody; also called M-011
Take B1: the Kd is 1.08 nM and 1 nM; the koff stood at 5.32e-05 s⁻¹; the on-rate (kon) was 49300 M⁻¹ s⁻¹.
